From US20110091971A1, “Differentiation of Pluripotent Stem Cells” (priority 2008, published 2011)
Numbering of substitutions follows the chain as printed.

B1: ACTN21: activin A variant peptide, SEQ ID 22 (protein)
chain: GLECDGKVNYCCKKQWFVSFKDIGWNDWIIAPSGYHANKCSGKCPSHIAGTSGSSLSFHSTVINHYRMRGHSPFANMGSCCIPTKLRPMSMLYYDDGQNIIKKDIQNMIVEECGCS
B2: ACTN32: activin A variant peptide, SEQ ID 33 (protein)
chain: B1 chain with Y10L, W16D, K39R, S41G, A75S
B3: ACTN28: activin A variant peptide, SEQ ID 29 (protein)
chain: B1 chain with W16L, K39H
B4: ACTN22: activin A variant peptide, SEQ ID 23 (protein)
chain: B1 chain with Y10L, W16D, K39R, S41D, K43L, N76L, S79A
B5: ACTN23: activin A variant peptide, SEQ ID 24 (protein)
chain: B1 chain with W16D, S41D, A75S, N76D

Legend:
Format in all cases: cell-based
[1] = test system: Human Embryonic Stem Cells (H1 hESC line); assay: High content analysis of cell number and SOX17 expression at end of first step of differentiation (Example 12); conditions: 100 ng/ml peptide, FIG. 23C-F
Procedure: (§1) Preparation of Cells for Assay: Stock Cultures of Human Embryonic Stem Cells (H1 hESC line) were maintained in an undifferentiated, pluripotent state on growth factor-reduced MATRIGEL™-coated dishes in MEF conditioned medium supplemented with bFGF (PeproTech; Cat #100-18B) with passage on average every, four days. Passage was performed by exposing cell cultures to a solution of 1 mg/ml collagenase (Invitrogen, Cat #17104-019) for five to seven minutes at 37° C. followed by rinsing the monolayer with MEF conditioned medium and gentle scraping to recover cell clusters. Clusters were centrifuged at low speed to collect a cell pellet and remove residual collagenase. Cell clusters were split at a 1:3 or 1:4 ratio for routine maintenance culture or a 1:1 ratio for immediate assay. All human ES cell lines were maintained at passage numbers less than 50 and routinely evaluated for normal karyotypic phenotype and for absence of mycoplasma contamination.
(§2) Cell clusters were evenly resuspended in MEF conditioned medium supplemented with 8 ng/ml bFGF and seeded onto growth factor-reduced MATRIGEL™-coated 24-well, black wall culture plates (Arctic White; Cat #AWLS-303012) in volumes of 0.5 ml/well. Daily feeding was conducted by aspirating spent culture medium from each well and replacing with an equal volume of fresh medium. Plates were maintained at 37° C., 5% CO2 throughout the duration of assay.
(§3) Assay: The assay was initiated by aspirating culture medium from each well and adding back an aliquot (0.5 ml) of test medium. Test conditions for the first step of differentiation were conducted over a three-day period, feeding daily by aspirating and replacing the medium from each well with fresh test medium. Concentrated supernatants of the ACTN peptides were evaluated for protein concentration using a DuoSet ELISA kit for human activin A (R&D Systems; Cat #DY338), as previously described in Example 11. On the first day of assay, ACTN peptides were diluted to a final concentration of 100 ng/ml in RPMI 1640 medium (Invitrogen; Cat #: 22400) with 2% Albumin Bovine Fraction V, Fatty Acid Free (FAF BSA) (MP Biomedicals, Inc; Cat #152401), 8 ng/ml bFGF, and 20 ng/ml Wnt3a (R&D Systems; Cat #1324-WN/CF) and then added to the assay wells. On the second and third day of assay, ACTN peptides were diluted into RPMI 1640 medium supplemented with 2% fatty acid free BSA and 8 ng/ml bFGF, without any Wnt3a and then added to the assay wells. A positive control sample included a commercial source of activin A (PeproTech; Cat #12 0-14) diluted in culture medium with growth factors as indicated. At the conclusion of three days culture, cells from some wells were harvested for analysis by flow cytometry to evaluate levels of CXCR4, a marker of definitive endoderm formation. […]

[2] = test system: H1 or H9 human embryonic stem cells; assay: Activin A bioassay: differentiation of human embryonic stem cells to definitive endoderm, cell number and SOX17 intensity by high content analysis (96-well, four days); conditions: for Sox 17 Intensity % of control: control = R&D Sys Activin A 100 ng/ml on same plate;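 for Cell Number average: Raw total cell count per well from high content imaging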;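 for Sox 17 Intensity average: total fluorescence of the cell multiplied by cell area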
Procedure, shortened: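 Read-out was cell count and integrated SOX17 immunofluorescence by high-content imaging, with each well divided by the mean of the 100 ng/ml activin A control. Over the four-day culture, test samples were given in DMEM:F12 with 0.5% FCS plus 20 ng/ml Wnt3a for the first two days and in 2% FCS alone for the last two. Cells were H1 or H9 hESC clusters grown on Matrigel.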

[3] = test system: Human Embryonic Stem Cells (H1 hESC line); assay: FACS analysis of CXCR4 at conclusion of first step of step-wise differentiation (Example 12); conditions: 100 ng/ml peptide, end of first step (three days), FIG. 23A, 23B
Procedure: as §1, §2, §3

[4] = supernatant concentration 1x, assay dilution 1:20
[5] = supernatant concentration 10x, assay dilution 1:20
[6] = supernatant concentration 10x, assay dilution 1:40

| Molecule | cell number and SOX17 expression (high content analysis) [1] | SOX17 expression ([2]; Wnt3a omitted from treatment on days 1 and 2) | Optimal activin A effects for induction of SOX17 expression (concentration range) ([2]; commercial activin A (Peprotech), 20 ng/ml Wnt3a on days 1 and 2, four days) [ng/mL] | EC50 for induction of SOX17 expression ([2]; commercial activin A (Peprotech), two-fold dilution curve, 20 ng/ml Wnt3a on days 1 and 2, four days) [mg/L] | CXCR4 expression (FACS) [3] | Cell Number average [2, 4] | Sox 17 Intensity average [2, 4] | Sox 17 Intensity % of control [2, 4] [%] | Cell Number average [2, 5] | Sox 17 Intensity average [2, 5] | Sox 17 Intensity % of control [2, 5] [%] | Cell Number average [2, 6] | Sox 17 Intensity average [2, 6] | Sox 17 Intensity % of control [2, 6] [%] |
| --- | --- | --- | --- | --- | --- | --- | --- | --- | --- | --- | --- | --- | --- | --- |
| activin A [reference compound] | equivalent results | failed to produce measurable SOX17 expression | 100 to 200 | 0.03 to 0.05 | equivalent and robust CXCR4 expression |  |  |  |  |  |  |  |  |  |
| B1 |  |  |  |  |  | 8072 | 6.33E+03 | 0.0 | 11102 | 4.89E+05 | 1.7 | 10458 | 8.77E+04 | 0.3 |
| B2 |  |  |  |  |  | 16166 | 9.11E+04 | 0.3 | 14330 | 3.97E+04 | 0.1 | 11619 | 3.43E+05 | 1.2 |
| B3 |  |  |  |  |  | 7411 | 3.70E+06 | 12.6 | 12587 | 4.87E+07 | 165.7 | 10116 | 3.57E+07 | 121.5 |
| B4 |  |  |  |  |  | 9909 | 1.32E+05 | 0.4 | 8745 | 3.69E+05 | 1.3 | 9568 | 3.76E+05 | 1.3 |
| B5 |  |  |  |  |  | 6831 | 2.89E+04 | 0.1 | 10482 | 1.63E+05 | 0.6 | 8184 | 1.47E+05 | 0.5 |
